Where no end group is shown, it is not given here. [ ]: non-standard residue; d: D form. Cit = NC(=O)NCCC[C@H](N)C(=O)O
Legend:
[1] = Anionic stability assay (dextran sulfate dissociation of NPs); format: physicochemical
Description: Dextran sulfate (DS) solutions were prepared in 20 mM HEPES and added to NP solutions (prepared as in Example 4) so the final DS concentration was between […] and DNA concentration was 10 μg/mL. After a 15-minute decomplexation period, 15 μl of each formulation was added to a 2% E-gel with ethidium bromide and run for 10 minutes. pDNA release was calculated using ImageJ (NIH, Bethesda, Maryland) and the results shown in FIG. 2A where the percent of intact nanoparticles Is plotted as a function of DS concentration.

[2] = target: Cathepsin-B (Homo sapiens, UniProt P07858); assay: Enzymatic DNA release from NPs by cathepsin-B; format: biochemical; settings: relative to non-modified PD3 and all PD2 formulations
Description: NPs prepared as in Example 4 but in 8 mM L-Cysteine HCl buffer pH 6 at a final DNA concentration of 0.1 μg/μl. Cathepsin-B stock solution (60 units/mL) was subsequently added. Cat-B NP solutions were incubated at 37° C. for up to 4 hours. Aliquots were removed at the appropriate time points and analysed via agarose gel electrophoresis to visualize released DNA. DNA dilutions were prepared at different concentrations as a control and likewise added to the same agarose gel for subsequent quantification using bio-rad intensity software analysis and the results shown in FIG. 2B.

Substance | dextran sulphate concentration above which DNA was readily released [1] | DNA release in response to cathepsin-B activity [2]
({LEU}{ARG}8{LYS}{LEU}{ARG}4{LYS}{LEU}{ARG})2{LYS}{GLY}{VAL}{CIT}{GLY}{GLY}{SER}{CYS} (chain 1 LRKLRKLRKGV[Cit]GGSC-NH2; chain 2 LRKLRKLR; chain 3 LRKLR; also: branched dendron: side chains of K3, K6, K9 (chain 1) and K3, K6 (chain 2) amide-linked to other sequences, chain 2 C-terminus linked to another sequence) [PD1, comparison peptide dendron without modified lysines] | exceeding 50 μg/mL | –
({LYS(M)}{LEU}{ARG})8({LYS}{LYS(M)}{LEU}{ARG})4({LYS}{LYS(M)}{LEU}{ARG})2{LYS}{GLY}{VAL}{CIT}{GLY}{GLY}{SER}{CYS} (chain 1 K(2‑morpholinoacetyl)LRKK(2‑morpholinoacetyl)LRKK(2‑morpholinoacetyl)LRKGV[Cit]GGSC-NH2; chain 2 K(2‑morpholinoacetyl)LRKK(2‑morpholinoacetyl)LRKK(2‑morpholinoacetyl)LR; chain 3 K(2‑morpholinoacetyl)LRKK(2‑morpholinoacetyl)LR; also: branched dendron: side chains of K4, K8, K12 (chain 1) and K4, K8 (chain 2) amide-linked to other sequences) [PD3(M)] | – | readily released DNA in response to cathepsin-B activity

Reference: patent publication US20240408220A1, “PEPTIDE DENDRONS AND METHODS OF USE THEREOF” (ASTRAZENECA AB, priority 2021, published 2024)
